Measurements from patent US20100255008A1 (Hoffmann-La Roche, published 2010).

What was measured:
[1] = target: T1, human Flag-tagged soluble TWEAK (amino acids 106-249) (human, UniProt O43508 106-249); test: receptor interaction ELISA: antibody pre-incubated with human Flag-tagged soluble TWEAK, binding to coated human Fn14:Fc
T1 construct: the tag is put first here only by convention; also called Human TWEAK; not shown: Flag tag
T1 sequence (looked up): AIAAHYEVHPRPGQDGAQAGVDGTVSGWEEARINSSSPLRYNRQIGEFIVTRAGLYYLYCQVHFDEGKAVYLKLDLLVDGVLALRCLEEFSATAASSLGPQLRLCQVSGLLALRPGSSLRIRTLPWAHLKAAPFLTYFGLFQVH
Experimental: Blocking of human TWEAK/human Fn14 interaction was shown by receptor interaction ELISA. 96-well Maxisorp® plates (Nunc) were coated with 100 μl 1 μg/ml human Fn14:Fc (extracellular domain of human Fn14 (amino acids 1-75) fused to Fc portion of human IgG1) in PBS per well for 1.5 h at room temperature and blocked with a solution of 5% FBS in PBS for 30 minutes at room temperature under shaking. […] Wells were filled with 100 μl of anti-FLAG-HRP detection antibody, diluted 1:5000 in blocking buffer, and incubated for 1 h at room temperature. After four more wash steps, the signal was developed by addition of 100 μl 3,3,5,5-Tetramethylbenzidine (TMB) solution for approximately ten minutes. The reaction was stopped by adding 100 μl of 1 N HCl, and absorbance measured at 450 nm (reference wavelength 620 nm).

[2] = target: T2, Human recombinant soluble TWEAK (human, UniProt O43508 99-249, limits assumed); test: cell-based or functional assay
T2 sequence (looked up): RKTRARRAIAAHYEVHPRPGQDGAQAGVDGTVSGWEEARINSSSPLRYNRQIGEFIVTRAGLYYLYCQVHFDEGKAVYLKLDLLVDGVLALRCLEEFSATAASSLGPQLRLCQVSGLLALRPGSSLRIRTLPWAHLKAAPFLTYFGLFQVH

[3] = target: T3, Biotinylated human soluble TWEAK (human, UniProt O43508 99-249, limits assumed, biotinylated (sites not given)); test: Biacore SPR, biotinylated human soluble TWEAK on streptavidin sensor, antibody 100 nM as analyte, 25° C.
T3 construct: also called Human TWEAK
T3 sequence (looked up): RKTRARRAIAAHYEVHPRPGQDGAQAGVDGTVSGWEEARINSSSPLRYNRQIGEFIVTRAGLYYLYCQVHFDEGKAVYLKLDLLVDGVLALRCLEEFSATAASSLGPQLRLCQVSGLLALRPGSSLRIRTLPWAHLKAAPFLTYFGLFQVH
Experimental: A Biacore 2000 instrument was used with a Biacore streptavidin coated sensor mounted into the system. The system buffer HBS-ET (10 mM HEPES pH 7.4, 150 mM NaCl, 1 mM EDTA, 0.05% Tween® 20) was used at a flow rate of 100 μl/min. The sample buffer was the system buffer. Biotinylated human soluble TWEAK and biotinylated murine soluble TWEAK was immobilized on different flow cells on the SA sensor at 150 RU each. The flow cell FC1 was used as a blank reference cell. Each antibody was injected into the system as an analyte at 100 nM at 100 μl/min for 2 min association time. The dissociation of the immunecomplexes were monitored for 5 min. The sensor surface was washed with HBS-ET for 10 seconds and regenerated using 2×2 minutes injections with 10 mM glycine pH 2.25. This procedure was done at 25° C. The kinetically rate limiting step of the complex dissociation phase in the interval [240 s-300 s] was taken to calculate the dissociation rate kd [1/s] (Biacore Evaluation Software 4.0). According to the equation t1/2 diss=ln(2)/(60×kd), the half-life of each immunocomplexe in minutes was calculated.

B1: TW212 (antibody)
VL: DIVLTQSPAYLTMSPGQTTTISCKASQSVSIGPIHLMHWYQQKPGQPPRLLIYGASNPESGVPARFSGSGSGTDFTLTIHPVEADDAATYFCQQGKESPRTFGPGTKLEITRADAKPTVSIFPPSSEQLGTGSATLVCFVNNFYPKDINVKWKVDGSEKRDGVLQSVTDQDSKDSTYSLSSTLSLTKADYERHNLYTCEVTHKTSTAAIVKTLNRNEC
VH: QVQLQESGPGLLKPAQSLSLTCTVTGYSIRSGYWWSWIRQQPGKGLEWMGQIYNKGNTDNNPSLKSQITMTVDTSKNQFFLRLRSVTTEDTAVYYCARVFWDDAYFDVWGQGIQVTVSSATTTAPSVYPLAPACDSTTSTTNTVTLGCLVKGYFPEPVTVSWNSGALTSGVHTFPSVLHSGLYSLSSSVTVPSSTWPSQTVTCNVAHPASSTKVDKKIVPGDGSGCKPCTCPGPEVSSVFIFPPKPKDVLTISLSPKVTCVVVDISQDDPEVQFSWFIDGKEVHTAVTQPREEQFNSTYRMVSVLPILHQDWLNGKEFKCKVNSPAFPVPIEKTISKRRGQLQVPQVYTMPPPKEQLTQSQVSLTCMIKGFYPEDIDVAWQKNGQPEQSFKNTPPVLDTDETYFLYSKLDVKKDDWEKGDTFTCSVVHEALHNHHTEKTLSQRPGK
notes: Armenian hamster monoclonal antibody; also called Antibody 212
In the case of B1, the IC50 [1] is reported as 0.0151 µg/mL, the “IL-8 Secretion IC50” value [2] is reported as 112 ng/mL and the “t/2 diss [min] 25° C.” value [3] is reported as 20 min.
